Test results published in publication doi:10.1101/2021.02.07.430097.

B1: Nbr1(53-129) of the Ape4-Nbr1 fusion protein (domain or fragment)
chain: PTLRSSSVACNTCLKIIRNDSFHCTKCFDFDVCRDCYAKQAFLHPCPKPHFVLVRSSIPSVASLTCSVNSMSVSPQS

Target: Ape4 (full length) of the Ape4-Nbr1 fusion protein (S. pombe)
Test: cryo-EM structure

| Molecule | stoichiometry N | stoichiometry N (Nbr1-ZZ1 molecules per Ape4 dodecamer) |
| --- | --- | --- |
| Ape4 (full length) of the Ape4-Nbr1 fusion protein (enzyme) | 12 |  |
| B1 |  | 12 |
